Data: the Immune Epitope Database (IEDB)

Experiments:
[1] = target: HLA-A*02:02; experiment: IEDB peptide-MHC binding, purified MHC/competitive/radioactivity; ≥ and ≤ were set here for values at or beyond the usual limits of such assays; conditions: source organism: Human immunodeficiency virus type 1 (isolate YU2)
[2] = target: HLA-A*02:06; experiment: as above
[3] = target: HLA-A*68:02; experiment: as above; conditions: source organism: Human immunodeficiency virus type 1 (isolate YU2)
[4] = target: HLA-A*02:03; experiment: as above
[5] = target: HLA-A*02:06; experiment: IEDB peptide-MHC binding, purified MHC/competitive/radioactivity; filed as Kd, often an IC50 or EC50 that approximates it; ≥ and ≤ were set here for values at or beyond the usual limits of such assays; conditions: source organism: Human immunodeficiency virus type 1 (isolate YU2)
[6] = target: HLA-A*02:02; experiment: as above
[7] = target: HLA-A*68:02; experiment: as above
[8] = target: HLA-A*02:03; experiment: as above; conditions: source organism: Human immunodeficiency virus type 1 (isolate YU2)
[9] = source organism: Human immunodeficiency virus type 1 (isolate YU2)
[10] = source organism: Human immunodeficiency virus 1

Row | Sequence | IC50 [1] [nM] | IC50 [2, 9] [nM] | IC50 [3] [nM] | IC50 [4, 9] [nM] | also measured
1 | AIIRILQQL | 22.6 | 38.5 | 548 | 41.7 | –
2 | ILKEPVHGV | – | – | – | – | Kd [5]: ≥ 37000 nM
3 | KAACWWAGI | – | 161 | – | 83.3 | Kd [6, 9]: 1080 nM
4 | KMIGGIGGFI | 54.4 | 771 | – | 4.8 | Kd [7, 9]: 3330 nM
5 | LLQLTVWGI | 215 | 24.7 | 645 | 43.5 | –
6 | LTFGWCFKL | 33.1 | 206 | 5.6 | – | Kd [8]: 4550 nM
7 | LTFGWCFKLV | 48.9 | – | 6.2 | 185 | –
8 | LVGPTPVNI | 154 | – | 67.8 | 19.2 | Kd [5]: 2850 nM
9 | MASDFNLPPV | 22.6 | 33.6 | 18.2 | 55.6 | –
10 | MTNNPPIPV | – | – | 12.1 | 33.3 | Kd [6, 9]: 7170 nM; Kd [5]: 1610 nM
11 | RILQQLLFI | – | 37 | – | 125 | Kd [6, 9]: 1540 nM; Kd [7, 9]: 1820 nM
12 | SLLNATDIAV | – | – | – | – | Kd [6, 10]: 1300 nM; Kd [7, 10]: 5480 nM; IC50 [2, 10]: 28.5 nM; IC50 [4, 10]: 238 nM
13 | VLAEAMSQV | 82.7 | 116 | – | 15.2 | –
